Source: the RNAGym collection of RNA variant scans (doi:10.7554/elife.90254)

B1: LINE1-full (parent)
chain: UACGUAGGUGGUUUUCCCCUGAUAGUGCUAAGGGGGCCUGGAAGUUUGGACUGGGCAGAGCUCAACACAGCGUGGCAAAGUGGCUGUGGCUAGACUGCCUCUCUGGAUUCCUCGUCACUCAGCAGGGCAUCUCUGAGAGAAAUGCC

Variants of: B1
Test: self-cleavage, relative activity (ratio to wild type); higher = more cleavage; in vitro, sequencing; the parent is a self-cleaving ribozyme

Variant	self-cleavage
U47A A94U	0.18
U62C C98U	0.02
C120A G122U	2.31
C113G U143C	1.36
U13C A42G	1.19
U112C U143A	1.59
G10U A78G	1.09
C38G U52A	1.04
U26A G82U	0.93
U15C A140C	1.12
A78G U115C	1.51
U15C G54A	0.74
A6G G93A	0.14
C19U A22G	1.18
U9C A50U	1.38
U81C U100C	1.29
U52C A121U	1.5
C3U U62C	0.15
C116U A142G	1.27
U46A C146A	1.53
U39A A138U	1.75
A22C A141G	1.34
A59G A140U	0.09
C63U U143C	0.3

Variant	self-cleavage
U45C C61U	0.09
A2G A31G	1
U9C G83U	0.94
G135U U143C	1.63
U5A U73C	1.41
U87A C99U	0.12
C38A U130C	1.41
U9C U13A	1.11
C56U U130C	0
U13C C111A	1.57
C68U A69G	0.11
U91C C101U	0.69
U15A A22C	0.85
A59U U96C	0.24
A65G G144A	0.1
U29A G126A	0.75
A50G U134C	0.86
U115C U134A	0.9
U87G A138G	0.14
U115A C123A	1.7
U39G	1.46
U14A U115C	1.06
A43G A67C	0.05
G86A U115C	0.12

Variant	self-cleavage
C68A	0.04
A65G A107U	0
A77G U109G	0
G139C	1.53
G34C C56G	0.03
G35U U100C	1.85
C37G A59G	0.07
A2G U9C	0.83
A69G U87C	0.07
A69G U87G	0.48
G55U C113U	0.07
G70C C90A	0.02
A129U A142U	2.13
U96C G105A	0.06
A22G U119G	1.51
G25A A64G	0.27
U119A G122A	1.35
U12G U143A	0.59
A57G C61U	0.05
A64U A78G	0.27
G54A G72A	0.45
A43G A117U	1.93
U52C G127A	0.93
G33U A141G	1.32

Variant	self-cleavage
A69G C123U	0.45
G35A U134C	0.92
U115C G135A	2.23
G72U A129G	1.08
U96C C133U	0.08
A50G A107G	1.1
C63A A140G	0
U9A U14G	0
G21U U96C	0.06
G48U U109A	1.42
A129U U134C	1.22
A42G G83A	0.96
G34A U85C	0.12
A22U C123A	1.17
U47C U119C	1.48
U26C A65G	0.13
U104A U112A	1.4
A78C A138G	1.84
U5A A6U	1.23
A2U A57C	0.16
G72A C90G	0.03
G88C G105A	0.06
A64C A141G	0.48
A6G C146U	1.05

Variant	self-cleavage
U20A U29A	1.05
A50U U52A	1.17
G54C A138G	1.35
A30G C99U	1.03
U9C G10A	0.86
U15A C110A	1.16
U26C A124U	1.25
A64U G137A	0.24
U13C U14A	0.79
U52C G58U	0.04
U47C C95A	0.09
U39C A92G	0.09
A78G A140U	1.38
U115C U119G	2.63
G32A G89U	0.04
U9A U29C	1.19
U108C A129C	1.69
A2G U132C	1.04
U112A A117U	1.36
G32C U45C	1
U5A A57U	0.34
U87G U104A	0.2
A65C A141G	0.02
U39C C116U	1.05

Variant	self-cleavage
C120A A121U	0.93
A42G C66U	0.01
U12C C131U	1.29
G83C U132A	0.73
A43G A141U	1.61
G34U U134A	1.04
C120U A129C	0.82
U119A A140U	1.69
G7U A140U	1.34
U52A A65G	0.04
G53C U81C	1.34
C116A A138G	1.52
U15A U87A	0.08
C3U U20C	0.44
U5C G53U	0.88
U5G A124U	0.96
U39A G105U	1.23
U104C U143C	2.1
G7C U91C	0
A42U U46C	1.37
G74U U134C	1.88
A78U A92U	1.02
U13A U15A	0.59
A79U U143A	1.29

Variant	self-cleavage
U5C A78U	1.9
G34C U47C	1.79
U9C G44A	0.69
U12G A59G	0.23
U15G A78U	2.03
A43G A79C	2.63
G35A A121U	0.97
U45C U47G	1.09
U1A U134C	0.47
U29C C101G	0.89
A24U A142C	1.54
G34A A64G	0.12
G11A A69G	0.48
C16U A67G	0.45
A79U A107U	1.74
U13C U109C	1
A65G A67C	0.14
A117G C133U	2.55
U46A U85A	0.06
A22U U143G	1.27
G4A U14A	0.75
G54U A117G	0.52
G127A A141G	0.99
A22G U46C	1.04

Variant	self-cleavage
A64U U109A	0.49
A50C U130C	1.51
A31G G127C	2.39
A124G G135U	1.49
A30G A117U	1.17
A50U G55A	0.08
A22G G40A	0.55
U12C C17U	1.3
A78C U108C	2.16
U108G A140G	0.29
U13C A141G	1.18
U81C U104C	1.48
U62G U115G	0.14
A50U A141G	0.68
U62C C99U	0.04
U62A A92U	0.03
A24U A57G	0.56
U104A U134A	1.35
A2U G11A	0.92
U23G U109A	1
G75A A117U	1.53
U20A A138U	1.19
U12G U119G	0.8
G8U C145U	2.38

Variant	self-cleavage
U15C A50U	1
A22G U39A	1.72
C17U A59G	0.17
U26A A141U	0.61
A6U U15A	0.63
U20G A121G	1.27
A6G A67U	0.68
C3U A121U	1.41
U9A A69U	0.06
U1C U81G	1.01
A24G U87A	0.03
C90U U100A	0.04
A24U A117C	1.6
U45C U87C	0.23
A43C U87A	0.09
G54A A94G	0.15
G80U A107G	0.94
U96A	0.07
A22G C61U	0.07
U39G U132C	2.44
C118U A141G	1.8
U23C U130C	1.76
A22U U26A	0.5
A22U A31G	1.04

Variant	self-cleavage
G44A U73C	1.68
A94G U119A	0.39
U12G A30U	0.83
U5C U15C	1
A79G C84G	0.07
U1C U85G	0.08
U5A A94U	0.32
A79U U115C	1.12
U39G U109C	1.87
U46C A50G	1.59
A136U A138U	0.99
U13C A69G	0.5
U13C U47A	1.02
G125A U130A	1.61
A107G C131U	1.83
U100A A140U	0.57
C120U A121G	0
U73C U96G	0.19
A78U U96A	0.07
U102C C131A	1.48
U13G A57G	1.05
U20A	1.21
G105A U115C	1.54
A121C A141G	1.99

Variant	self-cleavage
U26G U108A	1.03
U96C C131U	0.09
U91C C146U	0.53
U1C A2G	0.72
U47C G74C	1.61
U100A U108A	0.97
U73C A138G	2.26
C71U U115G	1.23
A59U U112A	0.83
U87G U130C	0.41
U12G A64U	0.83
A30U G114C	1.25
U45C A107G	1.73
U115C C123A	1.49
U20C U87A	0.1
G83A G144U	1.55
C18U C71A	0.09
A64G U143C	0.26
U45C G70U	0.06
U102C A140U	1.48
U26A U45A	0.84
G75C A142G	0.85
A121U G137A	2.09
U15A A124U	0.85

Variant	self-cleavage
A140G U143A	0.79
A79G G137A	1.03
U91G A141G	0.06
U108A U132A	1.24
A50U A59G	0.04
U14A A22U	1.6
G25A A67G	0.5
U15G U104C	0.89
U62C A64U	0.05
U5C U23G	1.53
G70A U115C	0.16
U1C G35C	1.26
U20A A57G	1
U26G A31U	1.16
G122U	1.3
G33A A121G	1.28
G35A U87A	0.08
C37G A67U	0.12
U20C A136C	1.74
U85C C95U	0.06
A42G U91C	0.68
G105A A142G	1.24
A24G A64C	0.38
C66A A107U	0.05

Variant	self-cleavage
A57U G60C	0.05
C17U U143A	0.85
U45G U132A	0.86
C56U G74A	0.09
C17U A77U	0.36
U9C A92U	0.28
A50U A138C	1.21
G33U A59U	0.62
U12C C99G	0.63
G32A A67U	0.09
U15C U104G	1.29
A67C A94G	0
U15C C63U	0.43
U15A U81C	1.14
U45A A117U	0.76
U1C G82A	1.3
U45G A117G	0
G4A U47A	0.52
A79G G122A	1.31
C99U A124G	0.32
U20A U102C	1.46
C3A G122A	1.51
A6G G41U	0.46
G32A G97U	0.1

Variant	self-cleavage
A6G A78G	1.15
U85C C123G	0.15
G4U U119C	1.31
A77G A94U	0.61
A24G U52C	0.12
U9G U14C	0.68
A50G C145A	1.05
U9C A31G	0.91
C95U U134C	0.11
A50C U143C	0.82
A42G U112C	1.54
U15C A64U	0.66
U12A G21A	1.08
A59U A69U	0.04
G125U U134C	1.2
U9C A57U	0.24
A6U U104A	1.16
A50G G97A	0.06
U14C U62A	0.1
U45C G55A	0.27
G4C A124G	0.48
C113A U143C	0.76
